Test results: patent US20220332804A1 (CSL INNOVATION, published 2022)
Where two headings read alike, the source gives them in different places.

Experiments:
Assay in all cases: SPR, antibody captured, C2 as analyte
human C2 S473A [1] = molecular target: T1, human C2 S473A (human, UniProt P06681 21-752)
T1 sequence: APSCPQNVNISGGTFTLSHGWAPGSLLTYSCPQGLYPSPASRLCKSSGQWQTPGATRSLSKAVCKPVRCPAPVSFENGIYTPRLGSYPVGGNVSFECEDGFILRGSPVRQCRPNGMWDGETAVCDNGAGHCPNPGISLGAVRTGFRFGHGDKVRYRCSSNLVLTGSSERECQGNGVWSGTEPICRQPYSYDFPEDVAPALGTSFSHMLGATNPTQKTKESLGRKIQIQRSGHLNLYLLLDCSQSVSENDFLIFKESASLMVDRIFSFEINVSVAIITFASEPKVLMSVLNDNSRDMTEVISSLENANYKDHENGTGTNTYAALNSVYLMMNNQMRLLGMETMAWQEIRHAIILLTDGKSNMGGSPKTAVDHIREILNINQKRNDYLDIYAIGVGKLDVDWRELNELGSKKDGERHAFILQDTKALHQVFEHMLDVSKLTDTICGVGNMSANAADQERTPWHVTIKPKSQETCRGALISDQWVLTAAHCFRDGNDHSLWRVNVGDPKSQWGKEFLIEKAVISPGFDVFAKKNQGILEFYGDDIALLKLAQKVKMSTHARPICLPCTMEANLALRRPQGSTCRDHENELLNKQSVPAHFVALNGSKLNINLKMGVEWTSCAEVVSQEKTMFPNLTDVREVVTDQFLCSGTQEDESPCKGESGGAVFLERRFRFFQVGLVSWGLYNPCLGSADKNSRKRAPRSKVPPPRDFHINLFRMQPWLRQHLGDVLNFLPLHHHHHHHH

human C2 N424A = molecular target: T2, human C2 N424A (human, UniProt P06681 21-752)
T2 sequence: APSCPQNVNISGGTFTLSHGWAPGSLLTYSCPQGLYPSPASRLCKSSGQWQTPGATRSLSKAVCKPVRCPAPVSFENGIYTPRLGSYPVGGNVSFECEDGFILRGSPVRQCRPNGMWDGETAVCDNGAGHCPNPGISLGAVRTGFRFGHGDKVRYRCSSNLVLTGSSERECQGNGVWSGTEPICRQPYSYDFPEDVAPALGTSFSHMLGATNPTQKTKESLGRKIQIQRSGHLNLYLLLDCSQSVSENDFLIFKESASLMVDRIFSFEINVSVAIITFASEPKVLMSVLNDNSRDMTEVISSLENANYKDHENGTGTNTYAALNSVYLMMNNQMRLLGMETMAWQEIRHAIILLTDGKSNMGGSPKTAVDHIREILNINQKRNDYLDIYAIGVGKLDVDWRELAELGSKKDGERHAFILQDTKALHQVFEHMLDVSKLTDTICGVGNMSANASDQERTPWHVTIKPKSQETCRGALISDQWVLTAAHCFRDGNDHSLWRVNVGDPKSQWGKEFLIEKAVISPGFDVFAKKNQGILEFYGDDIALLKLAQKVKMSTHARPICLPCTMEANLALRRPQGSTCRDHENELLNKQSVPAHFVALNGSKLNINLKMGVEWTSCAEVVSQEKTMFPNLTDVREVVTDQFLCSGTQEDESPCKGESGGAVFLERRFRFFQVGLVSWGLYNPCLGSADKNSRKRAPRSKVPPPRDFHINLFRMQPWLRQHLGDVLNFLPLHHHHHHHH

human C2 N467A = molecular target: T3, human C2 N467A (human, UniProt P06681 21-752)
T3 sequence: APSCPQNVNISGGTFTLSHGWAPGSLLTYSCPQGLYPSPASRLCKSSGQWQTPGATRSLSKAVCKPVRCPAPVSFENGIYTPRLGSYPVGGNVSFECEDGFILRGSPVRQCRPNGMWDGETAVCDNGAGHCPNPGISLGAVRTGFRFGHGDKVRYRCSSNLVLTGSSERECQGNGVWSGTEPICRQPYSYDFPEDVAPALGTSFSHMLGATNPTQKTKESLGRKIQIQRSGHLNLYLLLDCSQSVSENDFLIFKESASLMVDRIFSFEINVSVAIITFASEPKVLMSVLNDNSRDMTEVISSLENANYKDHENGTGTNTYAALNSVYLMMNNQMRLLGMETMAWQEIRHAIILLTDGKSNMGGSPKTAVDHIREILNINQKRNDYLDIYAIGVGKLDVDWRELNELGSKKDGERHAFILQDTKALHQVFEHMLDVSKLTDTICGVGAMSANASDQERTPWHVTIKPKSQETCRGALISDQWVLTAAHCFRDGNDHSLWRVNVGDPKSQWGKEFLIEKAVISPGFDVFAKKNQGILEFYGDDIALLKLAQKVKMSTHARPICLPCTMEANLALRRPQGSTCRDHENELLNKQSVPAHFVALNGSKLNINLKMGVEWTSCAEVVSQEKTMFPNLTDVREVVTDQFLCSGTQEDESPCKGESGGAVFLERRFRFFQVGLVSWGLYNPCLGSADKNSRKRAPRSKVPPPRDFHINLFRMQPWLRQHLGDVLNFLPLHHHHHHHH

human C2 S473A [2] = molecular target: T1, human C2 S473A; remark: listed apart in the source

B1: RF16-226 (antibody, human IgG4 S228P, lambda)
heavy: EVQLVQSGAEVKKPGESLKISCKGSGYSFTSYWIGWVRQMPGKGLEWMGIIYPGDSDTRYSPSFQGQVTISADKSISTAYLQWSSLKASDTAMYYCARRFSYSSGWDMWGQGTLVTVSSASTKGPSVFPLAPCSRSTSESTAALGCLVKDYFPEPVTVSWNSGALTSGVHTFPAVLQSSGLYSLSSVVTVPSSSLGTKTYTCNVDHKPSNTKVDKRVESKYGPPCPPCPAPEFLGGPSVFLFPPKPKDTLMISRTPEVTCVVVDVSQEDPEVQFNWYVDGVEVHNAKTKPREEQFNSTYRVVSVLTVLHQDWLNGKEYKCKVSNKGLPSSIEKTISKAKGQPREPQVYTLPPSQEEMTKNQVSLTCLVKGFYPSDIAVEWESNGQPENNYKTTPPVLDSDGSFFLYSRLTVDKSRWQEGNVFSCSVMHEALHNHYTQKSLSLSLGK
light: SYELTQPPSVSVSPGQTARITCSGDALTSKYVAWYQQKSGLAPLLVIYEDTRRPSGIPAKFSGSSSGSVATLTISGAHGDDEADYYCYSTDASGHQRVFGGGTKLTVLSQPKAAPSVTLFPPSSEELQANKATLVCLISDFYPGAVTVAWKADGSPVKAGVETTKPSKQSNNKYAASSYLSLTPEQWKSHRSYSCQVTHEGSTVEKTVAPTECS
notes: pH-dependent anti-C2 antibody from a phage display library; also called WT
Human C2 S473A [1]
  Kd: 0.0142 µM

B2: RF16-242 (antibody, human IgG4 S228P, lambda, V domains shown)
VH: EVQLLQSGAEVKKPGESLKISCKGSGYSFTSYWIGWVRQMPGKGLEWMGIIYPGDSDTRYSPSFQGQVTISADKSISTAYLQWSSLKASDTAMYYCARRGHYGDYFDYWGQGTLVTVSS
VL: SYELTQPPSVSVSPGQTARITCSGDALPKKYAYWYHQKSGQAPVLVIYEDRRRPSEIPERFSGSSSGTMATLTITGAQVEDEGVYFCYSRDRAGNQRVFGGGTQLTVLG
notes: pH-dependent anti-C2 antibody from a phage display library
Human C2 N424A
  Kd: 0.0057 µM
Human C2 N467A
  Kd: 0.0134 µM
Human C2 S473A [2]
  Kd: 0.0155 µM
